In article PMC4517146, “Enzymatic Enantioselective Decarboxylative Protonation of Heteroaryl Malonates” (Chemistry (Weinheim an Der Bergstrasse, Germany), 2015):

Columns and labels:
Assay in all cases: spectrophotometric decarboxylation kinetics
Assay type in all cases: biochemical, Bordetella bronchiseptica
Conditions in all cases: assay conditions in Supporting Information
[1] = substrate: Cc1ccc(C(O)(C(=O)O)C(=O)O)o1
[2] = substrate: O=C(O)C(C(=O)O)c1ccco1
[3] = substrate: O=C(O)C(O)(C(=O)O)c1cc2ccccc2o1
[4] = substrate: O=C(O)C(O)(C(=O)O)c1ccc2sccc2c1
[5] = substrate: O=C(O)C(O)(C(=O)O)c1cccnc1
[6] = substrate: O=C(O)C(O)(C(=O)O)c1ccco1
[7] = substrate: O=C(O)C(O)(C(=O)O)c1cccs1

B1: aryl/alkenyl malonate decarboxylase (AMDase) (Bordetella bronchiseptica) (protein)
chain: MQQASTPTIGMIVPPAAGLVPADGARLYPDLPFIASGLGLGSVTPEGYDAVIESVVDHARRLQKQGAAVVSLMGTSLSFYRGAAFNAALTVAMREATGLPCTTMSTAVLNGLRALGVRRVALATAYIDDVNERLAAFLAEESLVPTGCRSLGITGVEAMARVDTATLVDLCVRAFEAAPDSDGILLSCGGLLTLDAIPEVERRLGVPVVSSSPAGFWDAVRLAGGGAKARPGYGRLFDES
notes: AMDase, construct details only in Supporting Information
Km [1]: 9.8 ± 2.2 mM
kcat [1]: 37.1 ± 8.8 s⁻¹
kcat/Km [1]: 3800 ± 500 M⁻¹ s⁻¹
Km [2]: 10.1 ± 4.5 mM
Km [3]: 8.2 ± 1.6 mM
kcat [3]: 278 ± 33.9 s⁻¹
kcat/Km [3]: 33900 ± 320 M⁻¹ s⁻¹
Km [4]: 3.1 ± 0.17 mM
kcat [4]: 148 ± 4.6 s⁻¹
kcat/Km [4]: 48300 ± 170 M⁻¹ s⁻¹
Km [5]: 6.4 ± 0.6 mM
kcat [5]: 225 ± 36.3 s⁻¹
kcat/Km [5]: 35300 ± 250 M⁻¹ s⁻¹
Km [6]: 8.6 ± 2.1 mM
kcat [6]: 61.9 ± 6 s⁻¹
kcat/Km [6]: 6400 ± 400 M⁻¹ s⁻¹
Km [7]: 4.3 ± 0.5 mM
kcat [7]: 166 ± 10.6 s⁻¹
kcat/Km [7]: 38600 ± 200 M⁻¹ s⁻¹
